Reference: PMC12786146

Biological target: MARY-MVP (protamine-tagged human major vault protein)
Assay: dynamic light scattering; DLS radii at varying MARY-MVP (0 to 7.3 nM) with INT-CFP fixed at 8.3 nM, pH 6.5 phosphate buffer, 50 mM NaCl, 1.5 mM MgCl2, after concentration

Substance: MARY-MVP (protamine-tagged human major vault protein)
- concentration of the transition from monomer to VLP: 5 nM
